Target: T1, human HLA-A2.1 on T2 cells (human)
T1 construct: whole, on cells; Empty or peptide-receptive HLA-A2.1 on TAP-deficient T2 cells; also called HLA-A*0201; class I MHC molecules
Test: T2 binding assay (HLA-A2 on T2 cells, flow cytometry)

B1: Glypican-3 136-145 (SLTPQAFEFV) (peptide)
peptide: SLTPQAFEFV
notes: Synthetic 10 mer of human glypican-3 (NP-004475); also called GPC3 136-145; GPC3136-145
Q: Does B1 bind?
A: binds

Source: patent publication US20130217122A1, “Expansion of Interferon-Gamma-Producing T-Cells Using Glypican-3 Peptide Library” (The Trustees of the University of Pennsylvania, priority 2012, published 2013)
